{"source": "patent US20240261333A1", "about": "“NOVEL TARGETS FOR ENHANCING ANTI-TUMOR IMMUNITY” (THE BROAD INSTITUTE, INC., priority 2021, published 2024)", "key": {"HBB (human)": {"biological_target": "HBB (human) (UniProt P68871)", "sequence (P68871 2-147 limits assumed)": "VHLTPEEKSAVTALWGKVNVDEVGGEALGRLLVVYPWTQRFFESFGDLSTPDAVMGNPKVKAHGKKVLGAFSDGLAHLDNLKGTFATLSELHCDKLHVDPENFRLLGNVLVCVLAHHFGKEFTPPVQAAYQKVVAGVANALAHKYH", "test": "co-IP with IgG control, lysate of C-FLAG B3GNT2 cells, mass spectrometry"}, "HNRNPH1 (human)": {"biological_target": "HNRNPH1 (human) (UniProt P31943)", "test": "co-IP with IgG control, lysate of C-FLAG B3GNT2 cells, mass spectrometry"}, "LAMC1 (human)": {"biological_target": "LAMC1 (human) (UniProt P11047)", "test": "co-IP with IgG control, lysate of C-FLAG B3GNT2 cells, mass spectrometry"}, "LUC7L3 (human)": {"biological_target": "LUC7L3 (human) (UniProt O95232)", "test": "co-IP with IgG control, lysate of C-FLAG B3GNT2 cells, mass spectrometry"}, "MMP14 (human)": {"biological_target": "MMP14 (human) (UniProt P50281)", "test": "co-IP with IgG control, lysate of C-FLAG B3GNT2 cells, mass spectrometry"}, "MMS19 (human)": {"biological_target": "MMS19 (human) (UniProt Q96T76)", "sequence (Q96T76 other isoform, or with tags, fused parts or gaps limits assumed)": "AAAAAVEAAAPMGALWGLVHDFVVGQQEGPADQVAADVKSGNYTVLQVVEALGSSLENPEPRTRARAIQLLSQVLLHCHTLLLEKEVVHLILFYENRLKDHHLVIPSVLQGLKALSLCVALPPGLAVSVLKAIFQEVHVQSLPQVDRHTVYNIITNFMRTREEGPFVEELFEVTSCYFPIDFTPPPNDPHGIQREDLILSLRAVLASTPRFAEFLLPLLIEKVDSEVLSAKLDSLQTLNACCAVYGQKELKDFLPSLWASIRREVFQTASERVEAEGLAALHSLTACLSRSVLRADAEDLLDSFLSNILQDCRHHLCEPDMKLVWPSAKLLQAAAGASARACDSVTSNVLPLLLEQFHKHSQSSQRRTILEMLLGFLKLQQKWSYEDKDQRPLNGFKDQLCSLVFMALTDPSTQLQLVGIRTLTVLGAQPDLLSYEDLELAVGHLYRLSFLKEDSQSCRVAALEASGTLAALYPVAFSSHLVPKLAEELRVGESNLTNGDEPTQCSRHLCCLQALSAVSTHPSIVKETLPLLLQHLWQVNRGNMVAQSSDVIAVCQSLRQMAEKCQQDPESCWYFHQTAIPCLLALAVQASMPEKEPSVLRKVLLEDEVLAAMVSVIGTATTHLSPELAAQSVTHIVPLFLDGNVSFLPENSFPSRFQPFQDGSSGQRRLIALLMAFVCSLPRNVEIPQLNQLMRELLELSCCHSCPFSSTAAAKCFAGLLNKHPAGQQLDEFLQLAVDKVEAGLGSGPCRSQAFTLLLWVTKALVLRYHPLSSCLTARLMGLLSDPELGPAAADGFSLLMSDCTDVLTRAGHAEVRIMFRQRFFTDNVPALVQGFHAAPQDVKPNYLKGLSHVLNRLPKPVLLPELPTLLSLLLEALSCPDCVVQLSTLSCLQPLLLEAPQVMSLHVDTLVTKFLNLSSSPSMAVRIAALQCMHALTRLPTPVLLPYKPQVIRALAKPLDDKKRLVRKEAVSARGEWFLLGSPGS", "test": "co-IP with IgG control, lysate of C-FLAG B3GNT2 cells, mass spectrometry"}, "NAP1L1 (human)": {"biological_target": "NAP1L1 (human) (UniProt P55209)", "sequence (P55209 2-388 limits assumed)": "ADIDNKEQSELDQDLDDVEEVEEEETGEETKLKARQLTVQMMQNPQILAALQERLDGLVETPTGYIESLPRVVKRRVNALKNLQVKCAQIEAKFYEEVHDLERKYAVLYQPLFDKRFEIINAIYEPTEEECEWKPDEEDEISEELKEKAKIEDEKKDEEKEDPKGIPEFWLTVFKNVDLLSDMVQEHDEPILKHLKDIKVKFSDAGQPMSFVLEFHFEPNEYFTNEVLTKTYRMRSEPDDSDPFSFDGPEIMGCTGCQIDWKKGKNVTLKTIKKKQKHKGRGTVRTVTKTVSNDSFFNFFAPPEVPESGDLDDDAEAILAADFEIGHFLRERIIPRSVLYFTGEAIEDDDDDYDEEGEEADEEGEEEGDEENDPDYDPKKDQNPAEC", "test": "co-IP with IgG control, lysate of C-FLAG B3GNT2 cells, mass spectrometry"}, "RBM14 (human)": {"biological_target": "RBM14 (human) (UniProt Q96PK6)", "sequence (Q96PK6 whole entry)": "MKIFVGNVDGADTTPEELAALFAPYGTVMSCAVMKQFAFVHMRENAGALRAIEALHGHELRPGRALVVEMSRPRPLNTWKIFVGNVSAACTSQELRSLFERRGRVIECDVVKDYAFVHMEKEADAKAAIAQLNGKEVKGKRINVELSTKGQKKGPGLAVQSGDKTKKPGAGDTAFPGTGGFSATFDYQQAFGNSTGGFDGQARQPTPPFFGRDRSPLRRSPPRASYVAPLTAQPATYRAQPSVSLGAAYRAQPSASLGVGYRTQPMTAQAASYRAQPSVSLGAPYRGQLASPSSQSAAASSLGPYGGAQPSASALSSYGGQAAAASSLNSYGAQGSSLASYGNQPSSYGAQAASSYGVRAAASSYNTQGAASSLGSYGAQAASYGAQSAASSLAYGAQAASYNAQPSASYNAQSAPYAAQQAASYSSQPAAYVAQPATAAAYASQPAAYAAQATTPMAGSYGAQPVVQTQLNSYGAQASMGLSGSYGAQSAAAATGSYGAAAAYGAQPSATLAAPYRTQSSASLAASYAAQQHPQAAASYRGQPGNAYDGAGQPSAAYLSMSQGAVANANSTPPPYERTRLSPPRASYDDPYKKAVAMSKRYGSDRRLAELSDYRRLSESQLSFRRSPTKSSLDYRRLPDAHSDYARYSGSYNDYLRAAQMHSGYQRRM", "test": "co-IP with IgG control, lysate of C-FLAG B3GNT2 cells, mass spectrometry"}, "RPL6 (human)": {"biological_target": "RPL6 (human) (UniProt Q02878)", "test": "co-IP with IgG control, lysate of C-FLAG B3GNT2 cells, mass spectrometry"}, "RPS20 (human)": {"biological_target": "RPS20 (human) (UniProt P60866)", "test": "co-IP with IgG control, lysate of C-FLAG B3GNT2 cells, mass spectrometry"}, "RPS24 (human)": {"biological_target": "RPS24 (human) (UniProt P62847)", "sequence (P62847 other isoform, or with tags, fused parts or gaps limits assumed)": "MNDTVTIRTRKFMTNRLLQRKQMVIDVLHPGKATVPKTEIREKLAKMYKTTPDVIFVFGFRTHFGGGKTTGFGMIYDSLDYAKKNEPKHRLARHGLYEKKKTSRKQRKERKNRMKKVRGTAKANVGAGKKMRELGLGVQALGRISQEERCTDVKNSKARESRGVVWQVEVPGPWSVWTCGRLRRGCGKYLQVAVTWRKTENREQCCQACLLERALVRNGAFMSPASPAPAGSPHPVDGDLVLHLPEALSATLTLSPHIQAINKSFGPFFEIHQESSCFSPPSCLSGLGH", "test": "co-IP with IgG control, lysate of C-FLAG B3GNT2 cells, mass spectrometry"}, "RUVBL2 (human)": {"biological_target": "RUVBL2 (human) (UniProt Q9Y230)", "test": "co-IP with IgG control, lysate of C-FLAG B3GNT2 cells, mass spectrometry"}, "XPOT (human)": {"biological_target": "XPOT (human) (UniProt O43592)", "test": "co-IP with IgG control, lysate of C-FLAG B3GNT2 cells, mass spectrometry"}, "CALML5 (human)": {"biological_target": "CALML5 (human) (UniProt Q9NZT1)", "sequence (Q9NZT1 2-146 limits assumed)": "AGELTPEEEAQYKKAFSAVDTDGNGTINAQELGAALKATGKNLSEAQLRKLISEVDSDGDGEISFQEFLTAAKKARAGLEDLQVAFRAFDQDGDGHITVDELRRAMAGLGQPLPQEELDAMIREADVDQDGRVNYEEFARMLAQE", "test": "control IP with IgG, lysate of cells with C-FLAG B3GNT2, mass spectrometry"}, "CCT3 (human)": {"biological_target": "CCT3 (human) (UniProt P49368)", "sequence (P49368 whole entry)": "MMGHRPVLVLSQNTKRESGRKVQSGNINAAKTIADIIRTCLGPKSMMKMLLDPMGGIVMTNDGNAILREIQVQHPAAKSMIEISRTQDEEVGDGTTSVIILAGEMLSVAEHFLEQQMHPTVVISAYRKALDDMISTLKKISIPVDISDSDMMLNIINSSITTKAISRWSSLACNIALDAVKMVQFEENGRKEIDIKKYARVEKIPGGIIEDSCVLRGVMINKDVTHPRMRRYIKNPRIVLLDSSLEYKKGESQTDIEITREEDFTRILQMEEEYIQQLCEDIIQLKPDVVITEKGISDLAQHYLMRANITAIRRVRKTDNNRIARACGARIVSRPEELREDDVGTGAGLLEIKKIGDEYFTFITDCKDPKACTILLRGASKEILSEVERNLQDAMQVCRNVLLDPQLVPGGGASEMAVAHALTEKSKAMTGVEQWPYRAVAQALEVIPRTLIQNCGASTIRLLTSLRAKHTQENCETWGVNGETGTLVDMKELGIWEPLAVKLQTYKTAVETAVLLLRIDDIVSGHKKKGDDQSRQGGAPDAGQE", "test": "control IP with IgG, lysate of cells with C-FLAG B3GNT2, mass spectrometry"}, "DDX1 (human)": {"biological_target": "DDX1 (human) (UniProt Q92499)", "test": "control IP with IgG, lysate of cells with C-FLAG B3GNT2, mass spectrometry"}, "EMILIN1 (human)": {"biological_target": "EMILIN1 (human) (UniProt Q9Y6C2)", "test": "control IP with IgG, lysate of cells with C-FLAG B3GNT2, mass spectrometry"}, "GBF1 (human)": {"biological_target": "GBF1 (human) (UniProt Q92538)", "test": "control IP with IgG, lysate of cells with C-FLAG B3GNT2, mass spectrometry"}, "GEMIN4 (human)": {"biological_target": "GEMIN4 (human) (UniProt P57678)", "test": "control IP with IgG, lysate of cells with C-FLAG B3GNT2, mass spectrometry"}, "GSN (human)": {"biological_target": "GSN (human) (UniProt P06396)", "sequence (P06396 28-782 limits assumed)": "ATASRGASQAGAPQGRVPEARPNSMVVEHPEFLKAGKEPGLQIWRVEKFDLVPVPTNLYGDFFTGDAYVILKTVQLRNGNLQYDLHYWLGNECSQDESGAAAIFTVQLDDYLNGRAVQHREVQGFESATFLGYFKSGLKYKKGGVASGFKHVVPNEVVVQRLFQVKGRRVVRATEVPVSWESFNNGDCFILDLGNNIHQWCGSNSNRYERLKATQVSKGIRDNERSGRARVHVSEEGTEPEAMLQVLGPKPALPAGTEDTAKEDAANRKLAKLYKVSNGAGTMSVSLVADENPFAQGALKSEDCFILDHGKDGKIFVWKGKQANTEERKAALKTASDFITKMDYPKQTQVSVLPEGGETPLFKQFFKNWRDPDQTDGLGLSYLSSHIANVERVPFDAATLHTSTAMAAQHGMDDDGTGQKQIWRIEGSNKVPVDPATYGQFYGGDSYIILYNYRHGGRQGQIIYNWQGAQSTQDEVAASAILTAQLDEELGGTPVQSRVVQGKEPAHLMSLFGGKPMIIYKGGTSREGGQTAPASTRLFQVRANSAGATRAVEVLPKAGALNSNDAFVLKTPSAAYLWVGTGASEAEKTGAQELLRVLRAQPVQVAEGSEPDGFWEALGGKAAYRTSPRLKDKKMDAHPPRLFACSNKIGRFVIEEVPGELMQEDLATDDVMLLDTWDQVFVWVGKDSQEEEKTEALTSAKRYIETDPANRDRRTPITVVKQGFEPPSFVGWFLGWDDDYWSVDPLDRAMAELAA", "test": "control IP with IgG, lysate of cells with C-FLAG B3GNT2, mass spectrometry"}, "HNRNPM (human)": {"biological_target": "HNRNPM (human) (UniProt P52272)", "test": "control IP with IgG, lysate of cells with C-FLAG B3GNT2, mass spectrometry"}, "IL13RA2 (human)": {"biological_target": "IL13RA2 (human) (UniProt Q14627)", "sequence (Q14627 27-380 limits assumed)": "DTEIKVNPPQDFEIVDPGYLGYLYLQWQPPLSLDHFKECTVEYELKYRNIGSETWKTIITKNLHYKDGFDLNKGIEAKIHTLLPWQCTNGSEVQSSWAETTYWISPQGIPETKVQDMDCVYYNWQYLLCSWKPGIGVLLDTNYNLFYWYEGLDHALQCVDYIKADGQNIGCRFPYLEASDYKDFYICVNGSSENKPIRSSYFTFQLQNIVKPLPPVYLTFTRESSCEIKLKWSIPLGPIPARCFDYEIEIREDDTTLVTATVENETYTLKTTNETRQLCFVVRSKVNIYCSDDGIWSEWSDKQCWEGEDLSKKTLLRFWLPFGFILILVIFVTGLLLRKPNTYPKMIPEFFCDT", "test": "control IP with IgG, lysate of cells with C-FLAG B3GNT2, mass spectrometry"}, "IMMT (human)": {"biological_target": "IMMT (human) (UniProt Q16891)", "test": "control IP with IgG, lysate of cells with C-FLAG B3GNT2, mass spectrometry"}, "KCTD5 (human)": {"biological_target": "KCTD5 (human) (UniProt Q9NXV2)", "test": "control IP with IgG, lysate of cells with C-FLAG B3GNT2, mass spectrometry"}, "MAP4 (human)": {"biological_target": "MAP4 (human) (UniProt P27816)", "test": "control IP with IgG, lysate of cells with C-FLAG B3GNT2, mass spectrometry"}, "PKM (human)": {"biological_target": "PKM (human) (UniProt P14618)", "test": "control IP with IgG, lysate of cells with C-FLAG B3GNT2, mass spectrometry"}, "RPL38 (human)": {"biological_target": "RPL38 (human) (UniProt P63173)", "test": "control IP with IgG, lysate of cells with C-FLAG B3GNT2, mass spectrometry"}, "RPS14 (human)": {"biological_target": "RPS14 (human) (UniProt P62263)", "test": "control IP with IgG, lysate of cells with C-FLAG B3GNT2, mass spectrometry"}, "S100A7 (human)": {"biological_target": "S100A7 (human) (UniProt P31151)", "sequence (P31151 2-101 limits assumed)": "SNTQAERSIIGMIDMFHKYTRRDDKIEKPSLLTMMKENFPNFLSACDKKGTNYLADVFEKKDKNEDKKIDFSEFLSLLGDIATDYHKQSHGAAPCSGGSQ", "test": "control IP with IgG, lysate of cells with C-FLAG B3GNT2, mass spectrometry"}, "SERPINB3 (human)": {"biological_target": "SERPINB3 (human) (UniProt P29508)", "sequence (P29508 whole entry)": "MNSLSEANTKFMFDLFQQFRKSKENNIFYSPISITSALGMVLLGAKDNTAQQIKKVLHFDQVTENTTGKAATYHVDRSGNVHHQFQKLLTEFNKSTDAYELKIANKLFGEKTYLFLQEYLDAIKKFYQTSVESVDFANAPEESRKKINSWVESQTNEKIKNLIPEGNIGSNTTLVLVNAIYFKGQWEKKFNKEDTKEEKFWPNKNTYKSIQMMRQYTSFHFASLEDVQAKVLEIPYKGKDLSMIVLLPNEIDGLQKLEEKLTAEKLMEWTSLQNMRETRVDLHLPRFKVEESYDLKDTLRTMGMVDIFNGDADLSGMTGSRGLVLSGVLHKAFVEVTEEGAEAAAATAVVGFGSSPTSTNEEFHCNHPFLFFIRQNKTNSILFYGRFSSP", "test": "control IP with IgG, lysate of cells with C-FLAG B3GNT2, mass spectrometry"}, "YTHDF2 (human)": {"biological_target": "T1, YTHDF2 (human) (UniProt Q9Y5A9)", "T1 sequence (looked up)": "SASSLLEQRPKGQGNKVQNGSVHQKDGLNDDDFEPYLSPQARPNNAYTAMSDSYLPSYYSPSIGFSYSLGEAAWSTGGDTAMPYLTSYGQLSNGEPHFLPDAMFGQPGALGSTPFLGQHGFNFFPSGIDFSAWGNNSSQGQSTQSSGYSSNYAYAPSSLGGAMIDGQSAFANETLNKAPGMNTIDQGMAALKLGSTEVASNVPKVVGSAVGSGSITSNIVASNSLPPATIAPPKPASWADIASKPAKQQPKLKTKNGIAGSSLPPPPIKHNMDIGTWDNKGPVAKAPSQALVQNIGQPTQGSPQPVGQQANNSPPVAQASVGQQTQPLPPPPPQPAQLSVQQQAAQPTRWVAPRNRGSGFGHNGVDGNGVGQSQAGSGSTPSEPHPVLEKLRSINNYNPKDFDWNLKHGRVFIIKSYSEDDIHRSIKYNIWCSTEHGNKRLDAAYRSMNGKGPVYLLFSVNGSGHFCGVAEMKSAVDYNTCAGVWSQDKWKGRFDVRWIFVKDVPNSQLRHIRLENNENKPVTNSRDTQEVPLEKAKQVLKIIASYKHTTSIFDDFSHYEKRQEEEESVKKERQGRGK", "test": "control IP with IgG, lysate of cells with C-FLAG B3GNT2, mass spectrometry"}}}
{"substance": "IgG control (Millipore Sigma 12-371) (antibody)", "values": [{"measurement": "co-IP/MS count, C-term IgG", "setting": "HBB (human)", "value": 0}, {"measurement": "co-IP/MS count, C-term IgG", "setting": "HNRNPH1 (human)", "value": 11}, {"measurement": "co-IP/MS count, C-term IgG", "setting": "LAMC1 (human)", "value": 0}, {"measurement": "co-IP/MS count, C-term IgG", "setting": "LUC7L3 (human)", "value": 3}, {"measurement": "co-IP/MS count, C-term IgG", "setting": "MMP14 (human)", "value": 0}, {"measurement": "co-IP/MS count, C-term IgG", "setting": "MMS19 (human)", "value": 0}, {"measurement": "co-IP/MS count, C-term IgG", "setting": "NAP1L1 (human)", "value": 0}, {"measurement": "co-IP/MS count, C-term IgG", "setting": "RBM14 (human)", "value": 0}, {"measurement": "co-IP/MS count, C-term IgG", "setting": "RPL6 (human)", "value": 4}, {"measurement": "co-IP/MS count, C-term IgG", "setting": "RPS20 (human)", "value": 5}, {"measurement": "co-IP/MS count, C-term IgG", "setting": "RPS24 (human)", "value": 2}, {"measurement": "co-IP/MS count, C-term IgG", "setting": "RUVBL2 (human)", "value": 0}, {"measurement": "co-IP/MS count, C-term IgG", "setting": "XPOT (human)", "value": 0}, {"measurement": "co-IP mass spectrometry count", "setting": "CALML5 (human)", "value": 0}, {"measurement": "co-IP mass spectrometry count", "setting": "CCT3 (human)", "value": 0}, {"measurement": "co-IP mass spectrometry count", "setting": "DDX1 (human)", "value": 5}, {"measurement": "co-IP mass spectrometry count", "setting": "EMILIN1 (human)", "value": 0}, {"measurement": "co-IP mass spectrometry count", "setting": "GBF1 (human)", "value": 0}, {"measurement": "co-IP mass spectrometry count", "setting": "GEMIN4 (human)", "value": 0}, {"measurement": "co-IP mass spectrometry count", "setting": "GSN (human)", "value": 0}, {"measurement": "co-IP mass spectrometry count", "setting": "HNRNPM (human)", "value": 5}, {"measurement": "co-IP mass spectrometry count", "setting": "IL13RA2 (human)", "value": 0}, {"measurement": "co-IP mass spectrometry count", "setting": "IMMT (human)", "value": 16}, {"measurement": "co-IP mass spectrometry count", "setting": "KCTD5 (human)", "value": 0}, {"measurement": "co-IP mass spectrometry count", "setting": "MAP4 (human)", "value": 0}, {"measurement": "co-IP mass spectrometry count", "setting": "PKM (human)", "value": 2}, {"measurement": "co-IP mass spectrometry count", "setting": "RPL38 (human)", "value": 6}, {"measurement": "co-IP mass spectrometry count", "setting": "RPS14 (human)", "value": 10}, {"measurement": "co-IP mass spectrometry count", "setting": "S100A7 (human)", "value": 3}, {"measurement": "co-IP mass spectrometry count", "setting": "SERPINB3 (human)", "value": 2}, {"measurement": "co-IP mass spectrometry count", "setting": "YTHDF2 (human)", "value": 2}]}
